Laboratory results from patent US11407825B2, “NaPi2b-targeted polymer antibody-drug conjugates and methods of use thereof” (Mersana Therapeutics, Inc., priority 2018, dated 2022).

Tests used:
[1] = Plasma PK profile in patients dosed with XMT-1536; type: in vivo, human; conditions: 30 patients, 3 to 40 mg/m^2, total antibody, conjugated drug, free drug, AF
Description: The PK profile of the active ingredient of XMT-1536, its release product and selected metabolites are determined for each patient by non-compartmental analysis using standard PK software (e.g., Phoenix WinNonlin). PK parameters per patient include time of maximum observed concentration (tmax), maximum concentration (Cmax), and area under the concentration curve for the last measurable concentration (AUC0-last). When the terminal elimination phase is identified, additional parameters such as elimination half-life, clearance, and volume of distribution are determined.
The plasma PK profile for the analytes (total antibody; conjugated drug (AF-HPA); free drug (AF-HPA) and the drug metabolite auristatin F (AF)) was determined in blood samples from 30 patients (3 mg/m^2, n=1; 6 mg/m^2, n=1; 12 mg/m^2, n=7; 20 mg/m^2, n=15; 30 mg/m^2, n=5; 40 mg/m^2, n=1). […] The PK characteristics is consistent with that reported for other approved antibody-drug conjugates or those currently in clinical development.

[2] = system: NaPi2b expressing tumors; assay: Phase 1b study of XMT-1536: duration on study and reason for discontinuation; type: in vivo, human
Source text: The study presented herein is an open label, multi-center Phase 1b study of XMT-1536 administered as an intravenous infusion once every three or four weeks. The dose escalation (DES) part of the study will establish the maximum tolerated dose (MTD) or recommended Phase 2 dose (RP2D) for XMT-1536 in patients with a number of tumor types likely to express NaPi2b, with a focus on patients with platinum-resistant ovarian cancer and non-squamous non-small cell lung cancer (NSCLC). […] The RP2D may differ from the MTD and may take into account tolerability, pharmacokinetic and pharmacodynamic measures, and efficacy of XMT-1536 based on RECIST 1.1. After the first cycle, patients may continue to receive XMT-1536 until disease progression provided the drug is well-tolerated and patients continue to derive clinical benefit in the opinion of the Investigator. The DES segment of the study utilized an accelerated titration design. The first 3-week cycle of treatment constitutes the dose limiting toxicity (DLT) evaluation period. For the first two dose levels, a minimum of 1 patient was treated at each dose level. If this patient experiences a treatment-emergent adverse event of Grade 2 or higher, 2 additional patients will be added at this dose level, and the study will subsequently follow a 3+3 design, as described below. […] Starting with Dose Level 3, the study will follow a standard 3+3 design, with 3 patients enrolled initially at each dose level. […] However, in the event of 1 DLT, 3 additional patients will be enrolled at the same dose level. Any dose level with 2 or more DLTs will be considered to exceed the MTD and subsequent patients will be enrolled at lower dose level(s). After the first cycle, patients may continue to receive XMT-1536 until disease progression if the drug is well-tolerated and patients continue to derive clinical benefit in the opinion of the Investigator.
After an August 2018 protocol amendment, each cycle will be 4-week (28 day) dose cycle. The first two, 4-week cycles of treatment (56 days) constitutes the dose limiting toxicity (DLT) evaluation period. Beginning with this amendment, up to 10 patients will be enrolled for evaluation at 20.0 mg/m^2 under the new 4-week cycle dose regimen. If that dose is cleared by the SRC, subsequent dose groups will follow a modified 3+3 design. Three patients will be enrolled initially and if toxicity issues arise, the SRC will review all pertinent data and may decide to add more patients to fully evaluate a dose in question and/or lower the dose. […] The observation period for DLTs is 56 days, between Day 1 through the end of Cycle 2 which includes the pre-dose assessments before receiving the Cycle 3 dose. A maximum of ten patients will be enrolled per dose level prior to the SRM. that will be conducted no later than 5 days after at least the sixth patient dosed in each level has completed Cycle 2, Day 28 evaluations. The data available for the patients dosed in all prior will be factored into the data review for each applicable dose escalation SRM. Any dose level with 2 or more DLTs occurring in 6 or fewer treated patients will be considered to exceed the MTD and subsequent patients will be enrolled at lower dose level(s). After the second cycle, patients may continue to receive XMT-1536 until disease progression if the drug is well-tolerated and patients continue to derive clinical benefit in the opinion of the Investigator. After completion of DES, the EXP segment of the study will be opened.
Treatment will continue indefinitely unless one of the following occurs: disease progression, inter-current illness that prevents further administration of treatment, unacceptable adverse events or pregnancy, patient non-compliance with the protocol, patient withdraws consent for participation from the study, and/or general or specific changes in the patient's condition render the patient unacceptable for further treatment in the judgment of the Investigator.

[3] = doses of 20 mg/m^2 and higher (n=18)

B1: XMT-1536: about 10-15 molecules of auristatin F-hydroxypropyl amide conjugated to a cysteine moiety of NaPi2b monoclonal antibody XMT-1535 via a PHF scaffold (conjugate, chains of the INN, looked up)
VH: QVQLVQSGAEVVKPGASVKMSCKASGYTFTGYNIHWVKQAPGQGLEWIGAIYPGNGDTSYKQKFRGRATLTADTSTSTVYMELSSLRSEDSAVYYCARGETARATFAYWGQGTLVTVSS
VL: DIQMTQSPSSLSASVGDRVTITCSASQDIGNFLNWYQQKPGKTVKVLIYYTSSLYSGVPSRFSGSGSGTDYTLTISSLQPEDFATYYCQQYSKLPLTFGQGTKLELK
modifications: auristatin F-hydroxypropyl amide via PHF scaffold
notes: about 10-15 molecules of auristatin F-hydroxypropyl amide conjugated to a cysteine moiety of NaPi2b monoclonal antibody XMT-1535 via a PHF scaffold
exposure with increasing doses, normalized to dose [1]: nearly dose proportional | Treatment duration >16 weeks ([2]; All NSCLC, N 3): 33% | Treatment duration >16 weeks, patients ([2]; All NSCLC, N 3): 1 | Treatment duration >16 weeks ([2]; All Ovarian Cancer (OC), N 19): 42% | Treatment duration >16 weeks, patients ([2]; All Ovarian Cancer (OC), N 19): 8 | discontinued for Progressive Disease per RECIST, patients ([2]; DL1 3 mg/m^2, n = 1): 1 | discontinued for Progressive Disease per RECIST, patients ([2]; DL2 6 mg/m^2, n = 1): 1 | discontinued for Clinical Progression, patients ([2]; DL3 12 mg/m^2, n = 7): 4 | discontinued for Progressive Disease per RECIST, patients ([2]; DL3 12 mg/m^2, n = 7): 3 | discontinued for Clinical Progression, patients ([2]; DL4 & 4A 20 mg/m^2, n = 13): 2 | discontinued for Progressive Disease per RECIST, patients ([2]; DL4 & 4A 20 mg/m^2, n = 13): 7 | discontinued for Clinical Progression, patients ([2]; DL5 & 5A 30 mg/m^2, n = 11): 3 | discontinued for Progressive Disease per RECIST, patients ([2]; DL5 & 5A 30 mg/m^2, n = 11): 6 | Treatment duration >16 weeks ([2]; NSCLC ≥ 20 mg/m^2, N 2): 50% | Treatment duration >16 weeks, patients ([2]; NSCLC ≥ 20 mg/m^2, N 2): 1 | Treatment duration >16 weeks ([2]; OC + NSCLC ≥ 20 mg/m^2, N 18): 56% | Treatment duration >16 weeks, patients ([2]; OC + NSCLC ≥ 20 mg/m^2, N 18): 10 | Treatment duration >16 weeks ([2]; OC ≥ 20 mg/m^2, N 16): 57% | Treatment duration >16 weeks, patients ([2]; OC ≥ 20 mg/m^2, N 16): 9 | Treatment duration >16 weeks ([2]; OC ≥ 30 mg/m^2, N 7): 43% | Treatment duration >16 weeks, patients ([2]; OC ≥ 30 mg/m^2, N 7): 3 | discontinued for Clinical Progression ([2]; Total, n = 34): (26%) | discontinued for Clinical Progression, patients ([2]; Total, n = 34): 9 | discontinued for Progressive Disease per RECIST ([2]; Total, n = 34): (53%) | discontinued for Progressive Disease per RECIST, patients ([2]; Total, n = 34): 18 | treatment duration of >16 weeks [2, 3]: 50% | treatment duration of >16 weeks, patients [2, 3]: 9
